{"source": "the supplement of paper PMC5998384", "key": {"[1]": {"system": "HeLa Kyoto", "test": "melting temperature (median over replicates), in situ; higher = more thermally stable"}, "[2]": {"system": "HeLa Kyoto", "test": "solubility change mitosis vs G1/S (difference of NP-40 vs SDS log2 ratios) (log2 ratio difference); higher = more soluble in mitosis"}, "[3]": {"system": "HeLa Kyoto", "test": "solubility in G1/S (NP-40 vs SDS abundance) (log2 ratio); higher = more soluble", "conditions": "cell cycle stage: G1/S"}, "[4]": {"system": "HeLa Kyoto", "test": "thermal stability score vs G1/S (z-score of summed log2 fold changes over temperatures); higher = more thermally stable than in G1/S"}, "[5]": {"conditions": "cell cycle stage: early G1 (4.5 h after nocodazole release)"}}}
{"sequence": "MRSGGRGRPRLRLGERGLMEPLLPPKRRLLPRVRLLPLLLALAVGSAFYTIWSGWHRRTEELPLGRELRVPLIGSLPEARLRRVVGQLDPQRLWSTYLRPLLVVRTPGSPGNLQVRKFLEATLRSLTAGWHVELDPFTASTPLGPVDFGNVVATLDPRAARHLTLACHYDSKLFPPGSTPFVGATDSAVPCALLLELAQALDLELSRAKKQAAPVTLQLLFLDGEEALKEWGPKDSLYGSRHLAQLMESIPHSPGPTRIQAIELFMLLDLLGAPNPTFYSHFPRTVRWFHRLRSIEKRLHRLNLLQSHPQEVMYFQPGEPFGSVEDDHIPFLRRGVPVLHLISTPFPAVWHTPADTEVNLHPPTVHNLCRILAVFLAEYLGL [QPCTL]", "values": [{"measurement": "melting temperature", "setting": "[1]; cell cycle stage: G1/S", "result": 51.9, "unit": "°C"}, {"measurement": "melting temperature", "setting": "[1]; cell cycle stage: mitosis", "result": 52.7, "unit": "°C"}, {"measurement": "solubility change mitosis (log2)", "setting": "[2]", "result": 0.00122}, {"measurement": "solubility in G1/S (log2)", "setting": "[3]", "result": -0.29}, {"measurement": "thermal stability score", "setting": "[4]; [5]", "result": 3.48}, {"measurement": "thermal stability score", "setting": "[4]; cell cycle stage: mitosis", "result": 4.18}]}
{"sequence": "MAGDVGGRSCTDSELLLHPELLSQEFLLLTLEQKNIAVETDVRVNKDSLTDLYVQHAIPLPQRDLPKNRWGKMMEKKREQHEIKNETKRSSTVDGLRKRPLIVFDGSSTSTSIKVKKTENGDNDRLKPPPQASFTSNAFRKLSNSSSSVSPLILSSNLPVNNKTEHNNNDAKQNHDLTHRKSPSGPVKSPPLSPVGTTPVKLKRAAPKEEAEAMNNLKPPQAKRKIQHVTWP [C2ORF49]", "values": [{"measurement": "melting temperature", "setting": "[1]; cell cycle stage: G1/S", "result": 50.3, "unit": "°C"}, {"measurement": "melting temperature", "setting": "[1]; cell cycle stage: mitosis", "result": 51.3, "unit": "°C"}, {"measurement": "solubility change mitosis (log2)", "setting": "[2]", "result": 0.015}, {"measurement": "solubility in G1/S (log2)", "setting": "[3]", "result": 0.348}, {"measurement": "thermal stability score", "setting": "[4]; [5]", "result": -1.3}, {"measurement": "thermal stability score", "setting": "[4]; cell cycle stage: mitosis", "result": -1.02}]}
{"sequence": "MAAAANSGSSLPLFDCPTWAGKPPPGLHLDVVKGDKLIEKLIIDEKKYYLFGRNPDLCDFTIDHQSCSRVHAALVYHKHLKRVFLIDLNSTHGTFLGHIRLEPHKPQQIPIDSTVSFGASTRAYTLREKPQTLPSAVKGDEKMGGEDDELKGLLGLPEEETELDNLTEFNTAHNKRISTLTIEEGNLDIQRPKRKRKNSRVTFSEDDEIINPEDVDPSVGRFRNMVQTAVVPVKKKRVEGPGSLGLEESGSRRMQNFAFSGGLYGGLPPTHSEAGSQPHGIHGTALIGGLPMPYPNLAPDVDLTPVVPSAVNMNPAPNPAVYNPEAVNEPKKKKYAKEAWPGKKPTPSLLI [PPP1R8]", "values": [{"measurement": "melting temperature", "setting": "[1]; cell cycle stage: G1/S", "result": 50.4, "unit": "°C"}, {"measurement": "melting temperature", "setting": "[1]; cell cycle stage: mitosis", "result": 51.2, "unit": "°C"}, {"measurement": "solubility change mitosis (log2)", "setting": "[2]", "result": -0.0793}, {"measurement": "solubility in G1/S (log2)", "setting": "[3]", "result": 0.0809}, {"measurement": "thermal stability score", "setting": "[4]; [5]", "result": 0.0118}, {"measurement": "thermal stability score", "setting": "[4]; cell cycle stage: mitosis", "result": -0.547}]}
{"sequence": "MSRYGRYGGETKVYVGNLGTGAGKGELERAFSYYGPLRTVWIARNPPGFAFVEFEDPRDAEDAVRGLDGKVICGSRVRVELSTGMPRRSRFDRPPARRPFDPNDRCYECGEKGHYAYDCHRYSRRRRSRSRSRSHSRSRGRRYSRSRSRSRGRRSRSASPRRSRSISLRRSRSASLRRSRSGSIKGSRYFQSPSRSRSRSRSISRPRSSRSKSRSPSPKRSRSPSGSPRRSASPERMD [SRSF7]", "values": [{"measurement": "melting temperature", "setting": "[1]; cell cycle stage: G1/S", "result": 50.4, "unit": "°C"}, {"measurement": "melting temperature", "setting": "[1]; cell cycle stage: mitosis", "result": 50.5, "unit": "°C"}, {"measurement": "solubility change mitosis (log2)", "setting": "[2]", "result": 0.665}, {"measurement": "solubility in G1/S (log2)", "setting": "[3]", "result": -1.02}, {"measurement": "thermal stability score", "setting": "[4]; [5]", "result": -4.9}, {"measurement": "thermal stability score", "setting": "[4]; cell cycle stage: mitosis", "result": -9.15}]}
{"sequence": "MAAGKSGGSAGEITFLEALARSESKRDGGFKNNWSFDHEEESEGDTDKDGTNLLSVDEDEDSETSKGKKLNRRSEIVANSSGEFILKTYVRRNKSESFKTLKGNPIGLNMLSNNKKLSENTQNTSLCSGTVVHGRRFHHAHAQIPVVKTAAQSSLDRKERKEYPPHVQKVEINPVRLSRLQGVERIMKKTEESESQVEPEIKRKVQQKRHCSTYQPTPPLSPASKKCLTHLEDLQRNCRQAITLNESTGPLLRTSIHQNSGGQKSQNTGLTTKKFYGNNVEKVPIDIIVNCDDSKHTYLQTNGKVILPGAKIPKITNLKERKTSLSDLNDPIILSSDDDDDNDRTNRRESISPQPADSACSSPAPSTGKVEAALNENTCRAERELRSIPEDSELNTVTLPRKARMKDQFGNSIINTPLKRRKVFSQEPPDALALSCQSSFDSVILNCRSIRVGTLFRLLIEPVIFCLDFIKIQLDEPDHDPVEIILNTSDLTKCEWCNVRKLPVVFLQAIPAVYQKLSIQLQMNKEDKVWNDCKGVNKLTNLEEQYIILIFQNGLDPPANMVFESIINEIGIKNNISNFFAKIPFEEANGRLVACTRTYEESIKGSCGQKENKIKTVSFESKIQLRSKQEFQFFDEEEETGENHTIFIGPVEKLIVYPPPPAKGGISVTNEDLHCLNEGEFLNDVIIDFYLKYLVLEKLKKEDADRIHIFSSFFYKRLNQRERRNHETTNLSIQQKRHGRVKTWTRHVDIFEKDFIFVPLNEAAHWFLAVVCFPGLEKPKYEPNPHYHENAVIQKCSTVEDSCISSSASEMESCSQNSSAKPVIKKMLNKKHCIAVIDSNPGQEESDPRYKRNICSVKYSVKKINHTASENEEFNKGESTSQKVADRTKSENGLQNESLSSTHHTDGLSKIRLNYSDESPEAGKMLEDELVDFSEDQDNQDDSSDDGFLADDNCSSEIGQWHLKPTICKQPCILLMDSLRGPSRSNVVKILREYLEVEWEVKKGSKRSFSKDVMKGSNPKVPQQNNFSDCGVYVLQYVESFFENPILSFELPMNLANWFPPPRMRTKREEIRNIILKLQEDQSKEKRKHKDTYSTEAPLGEGTEQYVNSISD [SENP6]", "values": [{"measurement": "melting temperature", "setting": "[1]; cell cycle stage: G1/S", "result": 51.8, "unit": "°C"}, {"measurement": "melting temperature", "setting": "[1]; cell cycle stage: mitosis", "result": 52.5, "unit": "°C"}, {"measurement": "solubility change mitosis (log2)", "setting": "[2]", "result": 0.144}, {"measurement": "solubility in G1/S (log2)", "setting": "[3]", "result": -0.261}, {"measurement": "thermal stability score", "setting": "[4]; [5]", "result": -0.65}, {"measurement": "thermal stability score", "setting": "[4]; cell cycle stage: mitosis", "result": 0.269}]}
